The subject of data set [1] is S. cerevisiae VSK-128 ACS2 deletion strain. Kind of data set: AADH in vivo growth assay, ACS2 deletion strain on glucose-based agar plates. The format is cell-based. From the text:
All copies of the ACS2 gene were deleted from the industrial S. cerevisiae VSK-128 strain in order to generate a strain with a defective PDH-bypass that was incapable of growth on glucose-based medium. Expression vectors carrying the 25 different AADH variants were then transformed into this ACS2 deletion strain to evaluate their ability to recover the growth of this strain on glucose.
There was a good correlation between the in vitro AADH enzyme activity assays and the in vivo growth recovery analyses.

For a further data set, the system named is AADH. Kind of data set: AADH in vitro enzyme activity assay from yeast cell lysates. Conditions: in vitro, expressed in yeast. It counts as biochemical. Here is the method: AADH activity was measured as described by Kozak et al. (2014, Metab. Eng. 21:46-59) by monitoring the reduction of NAD^+ at 340 nm at 30° C. The yeast cells for the cell lysates were collected, washed with water, and then resuspended into lysis buffer containing 100 mM Tris-HCl buffer (pH 7.5) and 1×EDTA free protease inhibitor cocktail (Roche). The cells were lysed with glass beads in a Precellys 24 homogenizer at 5500 rpm for 3×40 seconds and kept on ice between rounds. Lysates were centrifuged at 16 000 g for 20 min at 4° C. and supernatants were collected. The total protein concentration was determined using the Bradford method.
The enzyme assay reaction mixture contained 0.1 mM Coenzyme A, 50 mM CHES buffer (pH 9.5), 0.8 mM NAD^+, 0.2 mM DTT and 10 μL of cell extract in a total reaction volume of 200 μL. The reaction was started by adding 10 mM of freshly prepared acetaldehyde solution and reduction of NAD^+ was followed with a Thermo Konelab 20XT analyser.
Five AADH genes were originally chosen (i.e. ADHEpm, ADHEec, EUTec, EUTdz and LIN1129li) and transformed into the CEN.PK lab strain. These AADHs were expressed from a multicopy plasmid where they were under control of the TEF1 promoter.
Twenty additional novel AADH genes were chosen from the genome mining analyses to be evaluated for expression and enzyme activity in yeast.

The nature of data set [2]: SDS-PAGE expression levels of MCR constructs in E. coli lysate. From the text: (§1) pBAT T7 promoter based expression constructs were made for four different archaeal MCRs, Metallosphaera sedula (MCRms), Sulfolobus tokodai (MCRst), Candidatus caldiarchaeum (MCRcc), and Sulfolobales archaeon (MCRsa1).
Data set [3] deals with MCR. The data set is described as follows: MCR enzyme assay from yeast cell lysates. The format is biochemical. Conditions: NADPH as a cofactor. The procedure:
The MCR enzyme activity was measured according to the method described by Chen et al. (2014, Metab. Eng. 22:104-109) with slight modifications. The method is based on monitoring the oxidation of NAD(P)H at 340 nm.
Cells were collected and washed with cold wash buffer containing 20 mM Tris-HCl (pH 7.5), 20 mM NaN3 and then resuspended in 1 mL of breaking buffer containing 50 mM HEPES (pH 7.5), 150 mM KCl, 1 mM DTT, 1 mM EDTA, 0.5% Triton X-100 and 1×EDTA free protease inhibitor cocktail (Roche). The cells were lysed with glass beads in a Precellys 24 homogenizer at 5500 rpm for 3×40 seconds and kept on ice between rounds. Lysates were centrifuged at 16 000 g for 20 min at 4° C. and supernatants were collected. The total protein concentration was determined using the Bradford method.
The MCR assay mixture contained 50 mM Tris-HCl buffer (pH 8.0), 5 mM MgCl2 and 0.3 mM NADPH or NADH. After adding 20 μL of cell lysate into a total reaction volume of 200 μL, the reaction was pre-incubated for five minutes at 30° C. after which the reaction was started by addition of 0.15 mM malonyl-CoA. The assay was monitored at 340 nm with a Thermo Konelab 20XT analyser.
The eight full-length Chloroflexus MCR homologues were truncated into their two functional domains and the MCR-specific domains were assayed for enzyme activity in yeast along with the six archaeal MCRs. […]

In data set [4] the test system is MCR. The data set is described as follows: archaeal MCR activity assay in E. coli lysates (microtitre plate). It counts as biochemical. As to conditions: E. coli cell lysate, NADPH or NADH. Here is the method: as §1
Their activity was analyzed using the following assay conditions: 0.4 mM NAD(P)H; 0.15 mM Malonyl-CoA; Tris-HCl pH 7; 2 mM MgCl2. Assays on 20 times diluted lysates were performed in microtitre plate (MTP) format at RT. The oxidation of NADPHT or NADHT at A^365 in time was followed. […] However, the MCR activities were smaller than that measured for the tagged MCRca.

B1: AADHvs: eutE type AADH of Vibrio sp. EJY3, GenBank AEX22176.1 (protein)
chain: MNEQEIAHAVENVLSKYTNVTAQNAEPVSYSSNASLENIVSQALAGNMVKQPETQTAPDLNSNIENIVSQILAENQAKPQSVQCQSANHGTTEYLGCFASMEEAISAASHAQVQYRHCTMGDRASFVKGIREVFTQDDVLEKISRMAVEETGMGNYADKLTKNRIAATKTPGIEDLTTSALSGDSGLTLTEFSAYGVIGSITPTTNPTETIINNSIGMLAAGNTVVYSPHPRSRNVSLVAVDLINRKLAELGAPANLVVTVLEPSIDNTNAMMNDPRVNMLVATGGPSIVKTVMSTGKKAIGAGAGNPPAVVDETANIEKAAKDIINGCAFDNNLPCIAEKEVIVVNEVADYLIHCMKKSGAYLLCDKQKIQQLQSLVLNEKGTGPNTSFVGKGARYILDKLNIQVSDDIKVILIETERNHPFVVHELMMPILPVVRVENVDEAIDLAIKVEHGNRHTAIMHSTNVEKLSKMARLIQTTIFVKNGPSYSGIGVGGEGHTTFTIAGPTGEGITSARSFARYRRCVMVEALNIR
modifications: AADHvs
For B1, the “recovery of the growth deficiency of the ACS2-deletion strain” value in data set [1] is reported as “capable of recovering the growth deficiency”. The AADH activity entry in the data set with AADH is “shown to have AADH activity”.

B2: MCRsa1: archaeal malonyl-CoA reductase of Sulfolobales archaeon Acd1, WP_020198954.1 (protein)
chain: MRRTLKAAILGATGLVGIEYVRMLSQHPYIKPAYLAGKGSVGKAYSEVVRWQTVGQVPKEVADMPVLPTDVNEIKKAGVDIVFSPLPQGAAGPVEEEFAKAGFPVISNSPDHRFDPDVPLMIPEVNGHTASLIDEQKKRRDWSGFIVTTPLCTAQGIAIPLAPIYRDFRVDSVFITTMQSLSGEGYPGVASLDVVDNIKVLGDAYDAKTVKEVTRILSEVKRNVPGTMDELTLSATTHRIATIHGHYEVMYVTFKEDVKVEKVKETLANFKGEPQDMKLPTAPSRPILITELDNRPQPYFDRWAGDVPGMSVVVGRLKQVNNRTVRLVSLIHNTVRGAAGGGILVAEYLIEKGYIPK
modifications: Sulfolobales archaeon
Turning to B2, the expression level result in data set [2] is on record as “highest expression levels”. For the same molecule, the “MCR enzyme activity compared to the wild-type strain” value in the data set on MCR [3] was “higher than the wild-type strain”. In addition, the MCR activity result in the data set on MCR [4] is “showed the highest MCR activity”.

B3: MCRcc: archaeal malonyl-CoA reductase of Candidatus Caldiarchaeum subterraneum, GenBank BAJ50751.1 (protein)
chain: MKTYSVAILGATGMVGQHYIRMLYRHPWFRITALTGKESVGRKYVEAVRGEAPEPPKEIAEMEVLPTDPKKVDADFVFSCLPTEAAREAEPKFAEAGFPVFSDAAAYRMEEDVPLIVPEINHDHLNMVHIQRKKRGWEGYIVTTPNCTTVGLVLPLQPLKQHLGVKKVIVTTMQAVSGAGYPGVASLSILGNVIPYISGEERKVETETAKILGRYGDGRFTHDSVEVHATCTRVPTLDGHMESIYLETAKPADEETVAELLAEYVSLPQELNLPTAPARPIVVRRELDRPQTRIDVDAGTVPGMSVSVGRIRVNGEKVRFISLSHNLIRGAAGGTILTAELARHMGLLGE
modifications: Candidatus Caldiarchaeum
As for B3, the expression level result in data set [2] is given as “could not be expressed in a soluble form”. Moreover, the MCR activity result in the data set with MCR [4] is given as “No activity on NADPH or NADH could be measured”.

(Values after patent US10704064B2, “Recombinant yeast producing 3-hydroxypropionic acid and method for producing 3-hydroxypropionic acid using the same” (SK Innovation Co., Ltd., priority 2014, dated 2020).)
